According to the supplement of paper PMC7125110:
± gives the standard error. Variants at the floor of the assay were thinned out.

B1: glmS ribozyme (parent)
chain: AUAAAAGCGCCAGAACUACAGAAAUGUAGUUGACGAGGAGGAGGUUUAUCGAAUUUUCGGCGGAUGCCUCCAAA

Variants of: B1
Assay: self-cleavage kobs at 10000 uM GlcN6P; higher = faster cleavage; RNA array
Conditions: with glucosamine-6-phosphate
Outline: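 Barcoded ribozyme variants on sequenced MiSeq chips were transcribed in situ by E. coli RNA polymerase and followed at 37 °C through a hybridised Cy3 probe. Glucosamine-6-phosphate at 40 μM to 10 mM in HEPES/KCl/Mg(OAc)2 buffer was flowed in, and tiles were imaged over ~14 h. Signals were normalised to baseline and to non-cleaving reference variants, and per-tile medians were fit to one- or two-exponential decays to give kobs. Weighted Michaelis–Menten fits across concentrations gave kcat and KM.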

C34A A42C U65A and G9C U46A C58U cannot be ordered by “self-cleavage kobs at 10000 uM GlcN6P” value: < 1e-05 s⁻¹ for the first, < 1e-05 s⁻¹ for the second.

A12C U31C G43U G44U and A39C U49A C61U C70G cannot be ordered by “self-cleavage kobs at 10000 uM GlcN6P” value: < 1e-05 s⁻¹ for the first, < 1e-05 s⁻¹ for the second.

U30A G38C and C8A A14U A39C cannot be ordered by “self-cleavage kobs at 10000 uM GlcN6P” value: < 1e-05 s⁻¹ for the first, < 1e-05 s⁻¹ for the second.

A36U A42U C61U and A6U G7U C8U G32A G51U cannot be ordered by “self-cleavage kobs at 10000 uM GlcN6P” value: < 1e-05 s⁻¹ for the first, < 1e-05 s⁻¹ for the second.

Compared with C11U G38U C50A, U31A C58U is higher in “self-cleavage kobs at 10000 uM GlcN6P” value: < 1e-05 s⁻¹ for the first, 4.45e-05 ± 6.1e-06 s⁻¹ for the second.

Compared with G9U A12G G37U, G40C A64G C71U is higher in “self-cleavage kobs at 10000 uM GlcN6P” value: < 1e-05 s⁻¹ for the first, 0.00117 ± 0.00019 s⁻¹ for the second.

First: U30C G66A C71U
Second: G7U A12U G35U G51U G66A
The “self-cleavage kobs at 10000 uM GlcN6P” value of the first is higher: 0.000123 ± 2.3e-05 s⁻¹ for the first, < 1e-05 s⁻¹ for the second.

Going from G32U U57A to C58U C61U C71U, the “self-cleavage kobs at 10000 uM GlcN6P” value falls from 6.86e-05 ± 8.1e-06 s⁻¹ to < 1e-05 s⁻¹.

Compared with U31C G41A G66A, C11A C58A G59A is 2.7-fold lower in “self-cleavage kobs at 10000 uM GlcN6P” value: 0.00018 ± 2.8e-05 s⁻¹ for the first, 6.59e-05 ± 1.3e-05 s⁻¹ for the second.

First: U56C G66A C71U
Second: G40A C58A
The “self-cleavage kobs at 10000 uM GlcN6P” value of the first is 6.7-fold higher: 0.000503 ± 0.00011 s⁻¹ for the first, 7.56e-05 ± 1.6e-05 s⁻¹ for the second.

U30A G32A G41C G51C C61A C71U and U30A A33G C61G C70A cannot be ordered by “self-cleavage kobs at 10000 uM GlcN6P” value: < 1e-05 s⁻¹ for the first, < 1e-05 s⁻¹ for the second.

C11A A48G C50A C70A and U54G G63C U65C C68G C71G are within error of each other in “self-cleavage kobs at 10000 uM GlcN6P” value: 5.38e-05 ± 1.9e-05 s⁻¹ for the first, 3.78e-05 ± 1.6e-05 s⁻¹ for the second.

First: C8U A12U A42C C70U
Second: C10A G59U
The “self-cleavage kobs at 10000 uM GlcN6P” value of the first is lower: < 1e-05 s⁻¹ for the first, 7.46e-05 ± 7.9e-06 s⁻¹ for the second.

Compared with U54C G66C, U30C G32C G40A is 16-fold lower in “self-cleavage kobs at 10000 uM GlcN6P” value: 0.00113 ± 0.00015 s⁻¹ for the first, 6.96e-05 ± 1.4e-05 s⁻¹ for the second.

C16A U30G C34U and C16A U31C G41C C68A cannot be ordered by “self-cleavage kobs at 10000 uM GlcN6P” value: < 1e-05 s⁻¹ for the first, < 1e-05 s⁻¹ for the second.

G35C G44A U46G and G41C C58A C61U cannot be ordered by “self-cleavage kobs at 10000 uM GlcN6P” value: < 1e-05 s⁻¹ for the first, < 1e-05 s⁻¹ for the second.

G43C G62C A64G C68G and C10U C11U G66C cannot be ordered by “self-cleavage kobs at 10000 uM GlcN6P” value: < 1e-05 s⁻¹ for the first, < 1e-05 s⁻¹ for the second.

A14C A36G G51U and C8A U65G cannot be ordered by “self-cleavage kobs at 10000 uM GlcN6P” value: < 1e-05 s⁻¹ for the first, < 1e-05 s⁻¹ for the second.

Compared with G41U U69A, G37U C58G is lower in “self-cleavage kobs at 10000 uM GlcN6P” value: 3.54e-05 ± 1.5e-05 s⁻¹ for the first, < 1e-05 s⁻¹ for the second.

A39C G44C C50G U55G C67U and G59C G63C C70A cannot be ordered by “self-cleavage kobs at 10000 uM GlcN6P” value: < 1e-05 s⁻¹ for the first, < 1e-05 s⁻¹ for the second.

Compared with A12U A42G C58G, C8U U30G G43C is lower in “self-cleavage kobs at 10000 uM GlcN6P” value: 0.00079 ± 0.00015 s⁻¹ for the first, < 1e-05 s⁻¹ for the second.

First: C16A G43A G44A A48U
Second: A33G G37C C50G C68A
The “self-cleavage kobs at 10000 uM GlcN6P” value of the first is lower: < 1e-05 s⁻¹ for the first, 0.00162 ± 0.00046 s⁻¹ for the second.

First: U47C A53U C68G
Second: G38U C50G C71A
The “self-cleavage kobs at 10000 uM GlcN6P” value of the first is 3-fold lower: 3.22e-05 ± 1.4e-05 s⁻¹ for the first, 9.8e-05 ± 1.9e-05 s⁻¹ for the second.

Compared with U30A C67G C71G, C19G G37A is higher in “self-cleavage kobs at 10000 uM GlcN6P” value: < 1e-05 s⁻¹ for the first, 0.00215 ± 0.00044 s⁻¹ for the second.

A36C U54A G59A and G35C A42U C71U cannot be ordered by “self-cleavage kobs at 10000 uM GlcN6P” value: < 1e-05 s⁻¹ for the first, < 1e-05 s⁻¹ for the second.

First: A12G A42G A52G
Second: C11U U31C A42G A53U
The “self-cleavage kobs at 10000 uM GlcN6P” value of the first is 16-fold lower: 2.4e-05 ± 1.2e-05 s⁻¹ for the first, 0.000372 ± 8e-05 s⁻¹ for the second.

A14C G35C G38U C61U G63U U65A C71G and C8U G32C A33C G40C cannot be ordered by “self-cleavage kobs at 10000 uM GlcN6P” value: < 1e-05 s⁻¹ for the first, < 1e-05 s⁻¹ for the second.

Going from A12C A14G U54A to G43A C71G, the “self-cleavage kobs at 10000 uM GlcN6P” value falls from 0.0236 ± 0.0056 s⁻¹ to < 1e-05 s⁻¹.

Compared with G37A G44A, G29C G44A C58G is lower in “self-cleavage kobs at 10000 uM GlcN6P” value: 2.6e-05 ± 1.2e-05 s⁻¹ for the first, < 1e-05 s⁻¹ for the second.

First: G32A U69G C71A
Second: A12G G63C C70U
The “self-cleavage kobs at 10000 uM GlcN6P” value of the first is higher: 4.49e-05 ± 1.6e-05 s⁻¹ for the first, < 1e-05 s⁻¹ for the second.

Going from A14C G40U U56G to C8A C50G U54G C68U, the “self-cleavage kobs at 10000 uM GlcN6P” value falls from 0.00853 ± 0.0032 s⁻¹ to 6.41e-05 ± 2.3e-05 s⁻¹ (130-fold).

First: G44U U65A
Second: C16U G41U U47A
The “self-cleavage kobs at 10000 uM GlcN6P” value of the first is 9.3-fold lower: 5.28e-05 ± 1.3e-05 s⁻¹ for the first, 0.000489 ± 7.1e-05 s⁻¹ for the second.

First: U31A G43C C68U
Second: C8U G37C G43A C58A
The “self-cleavage kobs at 10000 uM GlcN6P” value of the first is higher: 0.000192 ± 5.2e-05 s⁻¹ for the first, < 1e-05 s⁻¹ for the second.

First: A52C C68U C70U
Second: U30A A42G U46A
The “self-cleavage kobs at 10000 uM GlcN6P” value of the first is 11-fold lower: 3.87e-05 ± 1.7e-05 s⁻¹ for the first, 0.000409 ± 9.1e-05 s⁻¹ for the second.

C50U G60U C61A and G13U A15U G62A C68A C70G cannot be ordered by “self-cleavage kobs at 10000 uM GlcN6P” value: < 1e-05 s⁻¹ for the first, < 1e-05 s⁻¹ for the second.

A33C G44C G60A and G29U G35C G43C G59A cannot be ordered by “self-cleavage kobs at 10000 uM GlcN6P” value: < 1e-05 s⁻¹ for the first, < 1e-05 s⁻¹ for the second.

First: A33C A36G U47G G51A
Second: A42G C58G G66A
The “self-cleavage kobs at 10000 uM GlcN6P” value of the first is lower: < 1e-05 s⁻¹ for the first, 5.14e-05 ± 1.9e-05 s⁻¹ for the second.

Compared with G38U C50G C67A C71G, C10G C50U G62U C70G is lower in “self-cleavage kobs at 10000 uM GlcN6P” value: 0.000322 ± 6.1e-05 s⁻¹ for the first, < 1e-05 s⁻¹ for the second.

A14G G29A U30C A39G and A14U A53U C68G are within error of each other in “self-cleavage kobs at 10000 uM GlcN6P” value: 4.63e-05 ± 1.6e-05 s⁻¹ for the first, 5.14e-05 ± 1.1e-05 s⁻¹ for the second.

First: U54A C58U
Second: A6C U47G U49C C67U
The “self-cleavage kobs at 10000 uM GlcN6P” value of the first is higher: 6.81e-05 ± 1e-05 s⁻¹ for the first, < 1e-05 s⁻¹ for the second.

Going from U31C G40U G66A to G13A A39G C67U, the “self-cleavage kobs at 10000 uM GlcN6P” value falls from 0.00025 ± 7.4e-05 s⁻¹ to 0.000112 ± 2.2e-05 s⁻¹ (2.2-fold).

With A39C G44C C68A the “self-cleavage kobs at 10000 uM GlcN6P” value was < 1e-05 s⁻¹.
